Reference: the supplement of paper PMC10126150
± gives the standard deviation of the averaged measurements.

Test system: ATP
Test: switch fluorescence ratio, 500 uM ATP over buffer (Cy3 cluster intensity, sum of 5 cycles each) (fold (ratio)); higher = stronger signal-on switching upon ATP binding; sequences stand for … in TCGTCGGCAGCGTCAGATGTGTATAAGAGACAGTTTTTTTTTTTTTTTTTTTTTTTTT…TC
Details: aptamer strand: ATP DNA aptamer (quencher-CACCTGGGGGAGTATTGCGGAGGAAGG + anchor), 100 nM annealed; ATP concentration: 500 uM
In short: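 Five buffer/ATP imaging cycles were run on Cy3-labelled switching-strand clusters on a modified Illumina MiSeq flow-cell, with NaOH stripping and re-annealing between cycles. In each cycle, clusters annealed to 100 nM quencher-labelled ATP aptamer were imaged in selection buffer, then after 15 min with 500 uM ATP at 22 °C. Per cluster, the fluorescence ratio is summed target-cycle over summed buffer-cycle Cy3 intensity, averaged per switch-domain sequence. Only clusters within 100-1000 RFU were kept.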
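Also: ATP exposure 15 min at 22 °C before imaging.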

Sequence | switch fluorescence ratio
TGAACCGCTA | 1.81 ± 0.16
TTTCTATGCG | 0.959 ± 0.025
TGAAGGCTTA | 0.994 ± 0.024
TTTCTTGGTA | 1.02 ± 0.024
GCGCTTAAAT | 1.03 ± 0.057
TGCGGTAATT | 1.14 ± 0.16
TGGTGGCCCG | 1.04 ± 0.035
GCCGCAGCTA | 3.05 ± 0.15
TGCATGGATC | 1.02 ± 0.012
GGAGGGCTCG | 0.981 ± 0.043
TGGAATGCGC | 1.24 ± 0.36
GGGTCTGGGG | 0.995 ± 0.022
CTGACTCGGT | 1.12 ± 0.013
TGATGTTAGC | 1.03 ± 0.036
GAAGGTTTGT | 1.002 ± 0.01
ATCAGTGGTA | 0.987 ± 0.028
CTAGCCTGCT | 0.994 ± 0.038
AGCTGAAGAC | 1.25 ± 0.097
GAATTTGTCC | 0.988 ± 0.013
GAGCGGCTTC | 1.027 ± 0.0097
AGTCAGAAAT | 1 ± 0.022
AGGGGGGCTG | 0.975 ± 0.045
CAGATGTACC | 1.08 ± 0.028

Sequence | switch fluorescence ratio
AAACTTAATA | 1.14 ± 0.16
ATGTGCAATA | 1.94 ± 0.082
ACCTTTTTCA | 1.021 ± 0.0084
TAGGGACGGG | 1.07 ± 0.087
GGGAAAATA | 0.969 ± 0.018
GGGGGCCTTT | 0.995 ± 0.02
ATATAACAGG | 1.03 ± 0.048
TTTAATTAGG | 1.03 ± 0.028
GATTTTCGAA | 1 ± 0.041
TAGGTATGGG | 0.9955 ± 0.002
GAGAAGCTAT | 0.987 ± 0.015
AAAAAAATGG | 1.01 ± 0.041
ACAGTATGGG | 1.03 ± 0.021
GCAGGAAGAG | 1.0184 ± 0.00041
ATCAGTGCGA | 1.036 ± 0.0081
TTACCATCCT | 1.19 ± 0.029
AGCGGGTTAA | 1.017 ± 0.0096
CCGGAGGAGA | 1.06 ± 0.017
TAGTGTATTG | 1.01 ± 0.012
ATTAAATTTC | 0.987 ± 0.014
TAATAATGAG | 0.981 ± 0.011
AAGATGGGGA | 1.01 ± 0.016
GGTCATTTAG | 0.994 ± 0.031

Sequence | switch fluorescence ratio
ATGTATTCTT | 0.987 ± 0.052
TGTTGGCCGG | 0.991 ± 0.026
GTTATTTATT | 0.995 ± 0.047
TTTTATACGG | 0.9874 ± 0.0087
TGGATATTTA | 0.978 ± 0.012
GCAATTTGGT | 1.03 ± 0.02
TTTTGGGGAC | 0.988 ± 0.043
TTAGGGCCTA | 0.9844 ± 0.0097
TCCGTAAACG | 1.09 ± 0.041
GAGGCTGGGT | 0.988 ± 0.0081
AACGCATGTG | 1 ± 0.039
CGTGCAAATT | 0.985 ± 0.026
TTTTCGCCGA | 1.03 ± 0.057
ATGGCCGGTT | 1.04 ± 0.013
TGCAAGTTTT | 1.24 ± 0.33
TCCGTTTCTG | 0.971 ± 0.018
ATGGGGTGTG | 1 ± 0.018
GGAAGTTCTA | 0.984 ± 0.016
GGACGTTTTT | 1.01 ± 0.015
AGGGATTAA | 0.99 ± 0.054
GTTTTACCGC | 1.01 ± 0.018
GGTATCAAGT | 0.9675 ± 0.0076
TGACGGGGTG | 1.01 ± 0.044

Sequence | switch fluorescence ratio
GCTGTATGTT | 0.974 ± 0.022
GTCTAAGGGA | 0.968 ± 0.024
GGGGAAGAGT | 0.996 ± 0.052
ACCCCTTGAT | 1.04 ± 0.023
TTACAGCCTG | 1 ± 0.04
TTTCGGAAGG | 0.988 ± 0.025
AATGTGTGAA | 1.01 ± 0.017
CAGCTCTGTT | 0.984 ± 0.041
ATTGAGGGGG | 1.04 ± 0.052
GGTGTCGTCA | 1.024 ± 0.0081
GGGTAATTAC | 1.048 ± 0.0053
AAGAGACAGG | 1.05 ± 0.042
ATGTGTACCC | 1.04 ± 0.016
GGTGTTGGAT | 1.01 ± 0.002
TTAAAGATAT | 1.23 ± 0.32
CACCAAGGTT | 1.15 ± 0.088
ATTAGGGTTC | 1.44 ± 0.47
TTGCCGCTGT | 1.18 ± 0.22
CGGGGTTTTT | 1.03 ± 0.12
ATTATGGGTT | 0.995 ± 0.029
GGTGGACTTA | 1.01 ± 0.03
GGGGTCTACC | 0.974 ± 0.014
CGTGTATTCT | 0.968 ± 0.034

Sequence | switch fluorescence ratio
TTAATGTTTG | 0.997 ± 0.042
GCTGTTCCTC | 1.07 ± 0.011
GGGTTAGATC | 1.03 ± 0.039
ATATTTTGTA | 0.983 ± 0.036
CCGTTTGTTT | 1.005 ± 0.005
GAGAGGGCCT | 0.985 ± 0.038
TTTGGGAGCA | 0.9882 ± 0.0022
TGGCACTTTT | 1.006 ± 0.0063
ACTCATTTGG | 1.001 ± 0.0087
GCTTGTGTGA | 0.999 ± 0.01
ACATGTTGCC | 1.02 ± 0.0074
CTAGTTGGTT | 0.971 ± 0.028
CGGCTTGTTG | 1.01 ± 0.017
TCGGTAGTG | 0.985 ± 0.028
CGATATTTGG | 1 ± 0.02
AATGCTGTGT | 0.97 ± 0.021
AAAGGGGGTA | 0.986 ± 0.015
AATGGTCAT | 0.991 ± 0.071
TTATTGTAAG | 0.9675 ± 0.006
AGAGCCGGGA | 0.988 ± 0.043
GTGGGCAGCG | 0.9666 ± 0.0047
TGGTTTCAGA | 0.984 ± 0.019
TTTGAATTTA | 1 ± 0.039

Sequence | switch fluorescence ratio
ACCTAACAGG | 0.9728 ± 0.0095
TTGCTATTCG | 0.992 ± 0.05
GTTTATAGGG | 0.985 ± 0.025
TTAACATTAC | 1.38 ± 0.11
TGCCTAGTTT | 0.995 ± 0.064
GTTATCTAGC | 0.994 ± 0.017
AATAGTGGCA | 1.02 ± 0.044
TTTCAGTTCC | 1.08 ± 0.002
CTAGGTGGAC | 1.01 ± 0.012
GCGTAAGACC | 1.07 ± 0.06
GTTGGAAGAT | 1.03 ± 0.015
GCGAAAAGGA | 1.02 ± 0.011
CAAACAGTTT | 0.994 ± 0.029
GCTCGAAGTT | 0.978 ± 0.029
TTGTGGAGTT | 1.01 ± 0.017
GATGTAAGGT | 1.02 ± 0.029
GGGAAATCGT | 1.02 ± 0.012
TGCTAGCTAT | 1.02 ± 0.0029
TTTTTTGGGG | 0.984 ± 0.023
GGCCTAAATA | 0.998 ± 0.014
GCATGTGGGC | 0.967 ± 0.01
ATGCGGGGGT | 0.993 ± 0.037
TTTGATTGGT | 0.99 ± 0.038

Sequence | switch fluorescence ratio
ATCGGATGGC | 1.06 ± 0.02
GACGGGATGG | 0.993 ± 0.056
TCTCAATGCT | 1.21 ± 0.2
AAGTCTATAA | 1.02 ± 0.046
AGTTGATTGT | 0.9895 ± 0.0076
CGCCGGGAGG | 0.989 ± 0.073
CGGGGGGGGC | 1.02 ± 0.044
TTGTGGGGAC | 1 ± 0.033
GTGGGAGCGT | 0.97882 ± 0.00039
GAGCATGGGA | 1.02 ± 0.012
AGAGGTAAGG | 0.983 ± 0.019
ACAGCGGACG | 1.02 ± 0.031
GAGCATAGTT | 1.03 ± 0.014
AAGGGGTGCA | 0.968 ± 0.058
CGATCGGTTG | 0.9499 ± 0.0033
GATCGAGGGA | 1.04 ± 0.14
TTTGATCTGT | 0.984 ± 0.012
ATGCGTCGCG | 0.986 ± 0.025
GCGACGGGAG | 1.01 ± 0.013
